Measurements from patent US20160185837A1 (Medimmune Limited, priority 2013, published 2016).
Where a chain is given by its changes, count along the chain named. Where “and” joins values, the source holds several entries; their conditions need not be identical. Equal entries are not always repeated.

B1: IP170 (protein)
chain: YSEGTFTSDVSSYMERQAIDEFIAWLLKGGAAAGGSGSTASSGSGSATGGGGAATHTCPPCPAPEF
modifications: /note=“Description of Artificial Sequence Synthetic Peptide-linker-hinge polypeptide”
B2: IP209 (protein)
chain: B1 chain with V10Y
modifications: /note=“Description of Artificial Sequence Synthetic Peptide-linker-hinge polypeptide”
B3: IP226 (protein)
chain: B1 chain with S12K, Y13L, M14L
modifications: /note=“Description of Artificial Sequence Synthetic Peptide-linker-hinge polypeptide”
B4: IP250 (protein)
chain: B1 chain with S12I, Y13A, E15D
modifications: /note=“Description of Artificial Sequence Synthetic Peptide-linker-hinge polypeptide”
B5: IP223 (protein)
chain: B1 chain with R16E, Q17E
modifications: /note=“Description of Artificial Sequence Synthetic Peptide-linker-hinge polypeptide”
B6: IP015 (protein)
chain: HGEGTFTSDVSSYLEGQAAKEFIAWLVKGAAAGGSGSTASSGSGSATGGGGAATHTCPPCPAPEF
modifications: /note=“Description of Artificial Sequence Synthetic Peptide-linker-hinge polypeptide”
B7: IP146 (protein)
chain: HGEGTFTSDVSSYLEGQAAKEFIAWLVKGAAAGGSGSTASSGSGSATGGGGAACPPCPAPEF
modifications: /note=“Description of Artificial Sequence Synthetic Peptide-linker-hinge polypeptide”
B8: IP203 (protein)
chain: B1 chain with Y1H, S2G, M14L, R16G, I19A, D20K, L27V
modifications: /note=“Description of Artificial Sequence Synthetic Peptide-linker-hinge polypeptide”
B9: IP188 (protein)
chain: YSEGTFISDYSIAMDKIHQQDFVNWLLAQKAPPGGGGGSGGGGSGGGGSGGGGSATHTCPPCPAPEF
modifications: /note=“Description of Artificial Sequence Synthetic Peptide-linker-hinge polypeptide”
B10: IP207 (protein)
chain: YAEGTFISDYSIAMDKIHQQDFVNWLLAQKGKKNDWKHNITQAAAGGSGSTASSGSGSATGGGGAATHTCPPCPAPELL
modifications: /note=“Description of Artificial Sequence Synthetic Peptide-linker-hinge polypeptide”

Legend:
Assay type in all cases: cell-based
[1] = molecular target: T1, mouse GIP receptor (mGIPr) (Mus musculus, UniProt Q0P543); assay: BSA-cAMP assay, cells expressing mouse GIP receptor; settings: BSA-cAMP assay; read-out: cAMP activity mGIPr (EC50)
T1 construct: expressed in transfected cells; host or cells: HEK293s or CHO cells
T1 sequence (Q0P543 19-460): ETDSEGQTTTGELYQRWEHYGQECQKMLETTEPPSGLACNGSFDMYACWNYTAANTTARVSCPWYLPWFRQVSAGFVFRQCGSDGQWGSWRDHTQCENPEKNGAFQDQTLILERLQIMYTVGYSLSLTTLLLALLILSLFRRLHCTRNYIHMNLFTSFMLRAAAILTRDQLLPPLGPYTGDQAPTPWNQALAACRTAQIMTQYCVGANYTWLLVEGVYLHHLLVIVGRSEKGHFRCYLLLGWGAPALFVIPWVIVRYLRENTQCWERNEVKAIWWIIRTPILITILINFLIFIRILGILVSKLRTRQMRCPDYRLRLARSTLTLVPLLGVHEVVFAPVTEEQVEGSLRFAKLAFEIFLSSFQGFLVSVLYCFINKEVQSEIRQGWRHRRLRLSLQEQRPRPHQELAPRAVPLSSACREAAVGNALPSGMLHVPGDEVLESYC
Method: (§1) One basic cAMP assays was performed, differing in the medium used for the assay, the “BSA-cAMP assay”:
(§2) BSA-based assay medium: 0.1% bovine serum albumin (BSA) in
(§3) In certain aspects, the assay can also be carried out in medium supplemented with serum albumin that corresponds to the receptor being tested, e.g., human serum albumin for testing cAMP activity at hGIPr or hGLP-1r, rat serum albumin for testing cAMP activity at rGIPr or rGLP-1r, and so on. […] All sample dilutions were made in duplicate.
(§4) A frozen cryo-vial of cells expressing the receptor of interest was thawed rapidly in a water-bath, transferred to pre-warmed assay media and spun at 240×g for 5 minutes. Cells were re-suspended in assay buffer at an optimized concentration (e.g., hGLP-1r and hGIPr cells at 0.5×10^5 cells/ml).
(§5) To this, 5 μL cell suspension was added and the plates incubated at room temperature for 30 minutes.
(§6) cAMP levels were measured using a commercially available cAMP dynamic 2 HTRF kit (Cisbio, Cat #62AM4PEJ), following the two step protocol as per manufacturer's recommendations. In brief; anti-cAMP cryptate (donor fluorophore) and cAMP-d2 (acceptor fluorophore) were made up separately by diluting each 1/20 in conjugate & lysis buffer provided in the kit. 5 μL anti-cAMP cryptate was added to all wells of the assay plate, and 5 μL cAMP-d2 added to all wells except non-specific binding (NSB) wells, to which conjugate and lysis buffer was added. […] Data was transformed to % Delta F as described in manufacturer's guidelines and then transformed to percent activation of maximal native agonist response and analysed by 4-parameter logistic fit to determine EC50 values.
(§7) We used unconstrained 4 parameter logistic fit of data, curve mid-point to determine EC50. This was tested on two occasions, not two batches.
(§8) In order to be able to carry out in vivo studies in rodents, IP088 was tested for potency against the mouse receptors mGIPr and mGLP-1r as well as the rat receptors rGIPr and rGLP-1r, using cells expressing the respective receptors in the cAMP assay described above.

rat GIP receptor (rGIPr) = molecular target: T2, rat GIP receptor (rGIPr) (Rattus norvegicus, UniProt P43219); assay: BSA-cAMP assay, cells expressing rat GIP receptor; settings: BSA-cAMP assay; read-out: cAMP activity rGIPr (EC50)
T2 construct: expressed in transfected cells; host or cells: HEK293s or CHO cells
T2 sequence (P43219 19-455): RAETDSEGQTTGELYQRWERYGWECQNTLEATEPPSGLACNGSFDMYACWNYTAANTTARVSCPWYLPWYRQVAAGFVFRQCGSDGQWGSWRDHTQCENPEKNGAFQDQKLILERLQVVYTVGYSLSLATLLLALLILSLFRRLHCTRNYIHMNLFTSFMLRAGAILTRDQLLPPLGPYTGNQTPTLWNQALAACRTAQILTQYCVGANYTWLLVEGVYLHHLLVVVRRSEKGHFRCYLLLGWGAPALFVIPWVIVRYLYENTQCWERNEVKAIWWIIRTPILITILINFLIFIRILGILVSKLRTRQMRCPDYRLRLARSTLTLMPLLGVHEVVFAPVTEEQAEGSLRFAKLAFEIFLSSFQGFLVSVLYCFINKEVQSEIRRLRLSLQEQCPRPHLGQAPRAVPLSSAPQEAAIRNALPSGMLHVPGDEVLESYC
Method: as §1, §2, §3, §4, §5, §6, §7, §8

[2] = molecular target: T3, human GIP receptor (hGIPr) (Homo sapiens, UniProt P48546); assay: BSA-cAMP assay, cells expressing human GIP receptor; settings: BSA-cAMP assay; batch 1 unless a batch is given; read-out: cAMP activity hGIPr (EC50)
T3 construct: expressed in transfected cells
T3 sequence (P48546 22-466): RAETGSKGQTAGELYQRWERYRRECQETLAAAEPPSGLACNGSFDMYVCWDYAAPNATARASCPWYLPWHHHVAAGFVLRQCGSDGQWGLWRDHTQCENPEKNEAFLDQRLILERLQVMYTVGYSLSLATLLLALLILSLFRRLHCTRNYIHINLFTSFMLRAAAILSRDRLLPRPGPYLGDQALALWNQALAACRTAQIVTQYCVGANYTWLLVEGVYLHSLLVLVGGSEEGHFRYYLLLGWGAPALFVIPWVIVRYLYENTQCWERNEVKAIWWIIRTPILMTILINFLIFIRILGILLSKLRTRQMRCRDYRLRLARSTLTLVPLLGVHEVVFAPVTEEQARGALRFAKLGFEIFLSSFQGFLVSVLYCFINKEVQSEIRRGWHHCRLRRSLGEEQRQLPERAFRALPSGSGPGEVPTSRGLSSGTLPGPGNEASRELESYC
Method: For human GIPr, two different lines were used, shown as “hGIPr” and “hGIPr (C3)” in Table 11.
as §1, §2, §3, §4, §5, §6, §7

[3] = molecular target: T4, rat GLP-1 receptor (rGLP-1r) (Rattus norvegicus, UniProt P32301); assay: BSA-cAMP assay, cells expressing rat GLP-1 receptor; settings: BSA-cAMP assay; read-out: cAMP activity rGLP1r (EC50)
T4 construct: expressed in transfected cells; host or cells: HEK293s or CHO cells
T4 sequence (P32301 22-463): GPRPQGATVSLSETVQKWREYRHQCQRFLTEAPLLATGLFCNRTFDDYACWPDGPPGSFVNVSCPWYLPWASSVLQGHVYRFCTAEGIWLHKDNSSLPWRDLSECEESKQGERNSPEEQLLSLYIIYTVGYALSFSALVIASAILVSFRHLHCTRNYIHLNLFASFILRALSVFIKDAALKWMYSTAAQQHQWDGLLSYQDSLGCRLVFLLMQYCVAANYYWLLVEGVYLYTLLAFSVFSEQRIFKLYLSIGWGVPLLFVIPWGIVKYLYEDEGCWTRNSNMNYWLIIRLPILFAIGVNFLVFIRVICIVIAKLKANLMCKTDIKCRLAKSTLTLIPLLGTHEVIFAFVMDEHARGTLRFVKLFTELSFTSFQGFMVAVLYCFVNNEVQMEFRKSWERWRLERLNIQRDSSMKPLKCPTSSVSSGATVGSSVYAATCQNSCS
Method: as §1, §2, §3, §4, §5, §6, §7, §8

[4] = molecular target: T5, human GLP-1 receptor (hGLP-1r) (Homo sapiens, UniProt P43220); assay: BSA-cAMP assay, cells expressing human GLP-1 receptor; settings: BSA-cAMP assay; batch 1 unless a batch is given; read-out: cAMP activity hGLP1r (EC50)
T5 construct: expressed in transfected cells
Method: as §1, §2, §3, §4, §5, §6, §7

[5] = molecular target: T6, mouse GLP-1 receptor (mGLP-1r) (Mus musculus, UniProt O35659); assay: BSA-cAMP assay, cells expressing mouse GLP-1 receptor; settings: BSA-cAMP assay; read-out: cAMP activity mGLP1r (EC50)
T6 construct: expressed in transfected cells; host or cells: HEK293s or CHO cells
T6 sequence (O35659 22-463): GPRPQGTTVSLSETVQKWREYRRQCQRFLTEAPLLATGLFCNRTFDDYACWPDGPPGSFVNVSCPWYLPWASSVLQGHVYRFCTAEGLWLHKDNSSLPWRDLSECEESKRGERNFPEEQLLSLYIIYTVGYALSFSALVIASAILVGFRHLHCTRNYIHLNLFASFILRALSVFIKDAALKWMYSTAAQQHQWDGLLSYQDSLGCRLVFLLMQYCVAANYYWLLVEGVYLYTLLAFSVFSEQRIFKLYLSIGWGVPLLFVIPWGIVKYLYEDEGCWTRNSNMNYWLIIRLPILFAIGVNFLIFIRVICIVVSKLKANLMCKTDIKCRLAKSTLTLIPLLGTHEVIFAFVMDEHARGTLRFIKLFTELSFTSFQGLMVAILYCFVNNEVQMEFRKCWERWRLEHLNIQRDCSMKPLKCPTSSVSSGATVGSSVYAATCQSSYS
Method: as §1, §2, §3, §4, §5, §6, §7, §8

[6] = molecular target: T7, human glucagon receptor (GCGr) (Homo sapiens, UniProt P47871); assay: BSA-cAMP assay, cells expressing human glucagon receptor; settings: batch 1 unless a batch is given, read-out: cAMP activity hGCGr (EC50)
T7 construct: expressed in transfected cells; host or cells: HEK293s or CHO cells
Method: as §1, §2, §3, §4, §5, §6, §7

T5 sequence (P43220 24-463): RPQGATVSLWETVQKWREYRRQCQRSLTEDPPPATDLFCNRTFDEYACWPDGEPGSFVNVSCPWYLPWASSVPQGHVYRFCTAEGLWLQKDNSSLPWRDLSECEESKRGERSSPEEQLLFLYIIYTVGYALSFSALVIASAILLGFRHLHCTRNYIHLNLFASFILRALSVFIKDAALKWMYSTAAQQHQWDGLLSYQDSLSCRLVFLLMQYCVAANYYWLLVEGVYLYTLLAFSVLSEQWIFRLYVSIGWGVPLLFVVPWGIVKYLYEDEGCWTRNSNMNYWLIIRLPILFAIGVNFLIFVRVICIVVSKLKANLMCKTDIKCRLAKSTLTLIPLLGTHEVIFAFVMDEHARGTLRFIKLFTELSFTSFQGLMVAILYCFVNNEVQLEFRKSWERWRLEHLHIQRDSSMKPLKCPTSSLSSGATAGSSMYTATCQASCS
T7 sequence (P47871 26-477): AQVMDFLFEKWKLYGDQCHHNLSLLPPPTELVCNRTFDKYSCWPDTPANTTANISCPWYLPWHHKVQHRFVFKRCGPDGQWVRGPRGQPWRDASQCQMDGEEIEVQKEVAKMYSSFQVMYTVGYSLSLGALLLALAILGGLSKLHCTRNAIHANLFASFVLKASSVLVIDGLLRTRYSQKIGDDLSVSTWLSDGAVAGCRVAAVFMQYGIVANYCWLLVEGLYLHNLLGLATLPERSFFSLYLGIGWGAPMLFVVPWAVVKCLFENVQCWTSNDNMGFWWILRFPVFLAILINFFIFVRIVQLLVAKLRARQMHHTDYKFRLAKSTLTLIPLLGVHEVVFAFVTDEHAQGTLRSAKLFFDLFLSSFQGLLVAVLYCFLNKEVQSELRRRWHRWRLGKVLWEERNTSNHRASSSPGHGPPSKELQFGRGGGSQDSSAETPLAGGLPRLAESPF

EC50 [1] [nM]	EC50 (rat GIP receptor (rGIPr)) [nM]	EC50 [2]	EC50 [3]	EC50 [4]	EC50 [5]	EC50 [6] [nM]	Molecule
34	2.3	0.079 nM	0.06 nM	0.12 nM	0.85 nM	–	B1
–	–	–	0.075 nM and 0.091 nM	0.23 nM and 0.2 nM	0.84 nM and 1.6 nM	> 6270	B2
7.5	0.27	0.025 nM	0.061 nM	0.2 nM	1 nM	–	B3
35	5.3	0.11 nM	2.2 nM	1.1 nM	22 nM	–	B4
–	72	2.5 nM	18 nM	16 nM	80 nM	–	B5
–	–	27 nM	0.014 nM	0.041 nM and 0.023 nM and 0.038 nM	0.13 nM	–	B6
–	–	83 nM	–	0.049 nM	–	650	B7
–	–	110 nM	–	0.042 nM	–	> 650	B8
–	–	0.0038 nM	–	500 nM	–	350	B9
–	–	0.0085 nM and 0.0078 nM	–	4100 nM	–	900	B10
